From PMC4032258, “Transmembrane Recognition of the Semaphorin Co-Receptors Neuropilin 1 and Plexin A1: Coarse-Grained Simulations” (PLoS ONE, 2014)

Target: the molecule itself
Assay: two-hybrid; bacterial adenylate cyclase two-hybrid (BACTH) in E. coli BTH101 (cya-); TM sequences fused to T18 and T25 fragments of CyaA behind an OmpA signal sequence; read out on MacConkey indicator plates and by beta-galactosidase activity, normalised to GpA-GpA as 100%

B1: Neuropilin 1 transmembrane domain (NRP1 TM), BACTH fusion (domain or fragment, human)
chain: ILITIIAMSALGVLLGAVCGVVLYRKR
notes: not part of NRP1; Modified pKTN25 and pUT18 plasmids; also called NRP1 TM domain; source: bacterial two-hybrid fusion (BACTH), E. coli BTH101 (cya-), cotransformed plasmids; not shown: T25 or T18 fragment of Bordetella pertussis adenylate cyclase CyaA, C-terminal, kept
interaction propensity (beta-galactosidase activity) relative to GpA-GpA: ~50%
